Biological target: anti-human ARSA (hARSA) antibodies in cerebrospinal fluid and serum of cynomolgus macaques given AAVhu68.CB7.CI.hARSAco.rBG

B1: human ARSA enzyme expressed from the AAVhu68.CB7.CI.hARSAco.rBG transgene in cynomolgus macaques (protein)
chain: RPPNIVLIFADDLGYGDLGCYGHPSSTTPNLDQLAAGGLRFTDFYVPVSLCTPSRAALLTGRLPVRMGMYPGVLVPSSRGGLPLEEVTVAEVLAARGYLTGMAGKWHLGVGPEGAFLPPHQGFHRFLGIPYSHDQGPCQNLTCFPPATPCDGGCDQGLVPIPLLANLSVEAQPPWLPGLEARYMAFAHDLMADAQRQDRPFFLYYASHHTHYPQFSGQSFAERSGRGPFGDSLMELDAAVGTLMTAIGDLGLLEETLVIFTADNGPETMRMSRGGCSGLLRCGKGTTYEGGVREPALAFWPGHIAPGVTHELASSLDLLPTLAALAGAPLPNVTLDGFDLSPLLLGTGKSPRQSLFFYPSYPDEVRGVFAVRTGKYKAHFFTQGSAHSDTTADPACHASSSLTAHEPPLLYDLSKDPGENYNLLGGVAGATPEVLQALKQLQLLKAQLDAAVTFGPSQVARGEDPALQICCHPGCTPRPACCHCPDPHA
Q: For B1, which “ARSA activity levels in CSF (hydrolysis of 4-nitrocatechol sulfate)” value is on record?
A: CSF ARSA activity levels returned to approximately baseline levels over the subsequent 28 days

From patent US20250313859
